Measured values: the Human Domainome abundance scans (Beltran et al. 2025)
± gives the uncertainty stated by the source.

B1: Proto-oncogene vav, residues 782 to 842; numbered along this chain, P15498 (parent)
chain: KYFGTAKARYDFCARDRSELSLKEGDIIKILNKKGQQGWWRGEIYGRVGWFPANYVEEDYS

Variants of: B1
Assay: abundance fitness (aPCA) (normalised: wild type 0, dead -1); higher = more abundant; growth selection in yeast, the domain comes from the species named
Details: Homo sapiens
Variant KYFGTAKARYDFCARDRSELSLKEGDIIKILNKKGQQGWWRGEIYGRVGWFPANYVSEDYS [E57S] has an abundance fitness of -0.059 ± 0.074. In the case of KYFGTAKARYDFCARDRSELSLKEGDIIKILNKKGQQGWWRGEIYGRVGWFPANYVYEDYS [E57Y], the abundance fitness is reported as -0.106 ± 0.11. For KYFGTAKARYDFCARDRSELSLKEGDIIKILNKKGQQGWWRGEIYGRVGWFPANYVREDYS [E57R], the abundance fitness was -0.123 ± 0.071. Variant KYFGTAKARYDFCARDRSELSLKEGDIIKILNKKGQQGWWRGEIYGRVGWFPANYVVEDYS [E57V] has an abundance fitness of -0.001 ± 0.076. KYFGTAKARYDFCARDRSELSLKEGDIIKILNKKGQQGWWRGEIYGRVGWFPANYVWEDYS [E57W] gave an abundance fitness of -0.478 ± 0.13. Work on KYFGTAKARYDFCARDRSELSLKEGDIIKILNKKGQQGWWRGEIYGRVGWFPANYVTEDYS [E57T] yielded an abundance fitness of 0.025 ± 0.074. With KYFGTAKARYDFCARDRSELSLKEGDIIKILNKKGQQGWWRGEIYGRVGWFPANYVEEYYS [D59Y] the abundance fitness was -0.244 ± 0.1. Variant KYFGTAKARYDFCARDRSELSLKEGDIIKILNKKGQQGWWRGEIYGRVGWFPANYVEETYS [D59T] has an abundance fitness of 0.008 ± 0.082. Work on KYFGTAKARYDFCARDRSELSLKEGDIIKILNKKGQQGWWRGEIYGRVGWFPANYVEEVYS [D59V] yielded an abundance fitness of -0.009 ± 0.073. Variant KYFGTAKARYDFCARDRSELSLKEGDIIKILNKKGQQGWWRGEIYGRVGWFPANYVEECYS [D59C] has an abundance fitness of -0.125 ± 0.11. Variant KYFGTAKARYDFCARDRSELSLKEGDIIKILNKKGQQGWWRGEIYGRVGWFPANYVEEMYS [D59M] has an abundance fitness of -0.027 ± 0.12. Work on KYFGTAKARYDFCARDRSELSLKEGDIIKILNKKGQQGWWRGEIYGRVGWFPANYVEENYS [D59N] yielded an abundance fitness of 0.052 ± 0.1. With KYFGTAKARYDFCARDRSELSLKEGDIIKILNKKGQQGWWRGEIYGRVGWFPANYVEEWYS [D59W] the abundance fitness was 0.048 ± 0.15. KYFGTAKARYDFCARDRSELSLKEGDIIKILNKKGQQGWWRGEIYGRVGWFPANYVEEPYS [D59P] gave an abundance fitness of -0.371 ± 0.11. In the case of KYFGTAKARYDFCARDRSELSLKEGDIIKILNKKGQQGWWRGEIYGRVGWFPANYVEEGYS [D59G], the abundance fitness is reported as -0.097 ± 0.088. KYFGTAKARYDFCARDRSELSLKEGDIIKILNKKGQQGWWRGEIYGRVGWFPANYVEEQYS [D59Q] gave an abundance fitness of 0.01 ± 0.11. With KYFGTAKARYDFCARDRSELSLKEGDIIKILNKKGQQGWWRGEIYGRVGWFPANYVEELYS [D59L] the abundance fitness was -0.138 ± 0.06. For KYFGTAKARYDFCARDRSELSLKEGDIIKILNKKGQQGWWRGEIYGRVGWFPANYVEEAYS [D59A], the abundance fitness was -0.188 ± 0.082. For KYFGTAKARYDFCARDRSELSLKEGDIIKILNKKGQQGWWRGEIYGRVGWFPANYVEERYS [D59R], the abundance fitness was -0.285 ± 0.081. Variant KYFGTAKARYDFCARDRSELSLKEGDIIKILNKKGQQGWWRGEIYGRVGWFPANYVEEFYS [D59F] has an abundance fitness of -0.015 ± 0.11. Variant KYFGTAKARYDFCARDRSELSLKEGDIIKILNKKGQQGWWRGEIYGRVGWFPANYVEEHYS [D59H] has an abundance fitness of -0.109 ± 0.11. In the case of KYFGTAKARYDFCARDRSELSLKEGDIIKILNKKGQQGWWRGEIYGRVGWFPANYVEEEYS [D59E], the abundance fitness is reported as -0.038 ± 0.1. KYFGTAKARYDFCARDRSELSLKEGDIIKILNKKGQQGWWRGEIYGRVGWFPANYVEFDYS [E58F] showed an abundance fitness of -0.297 ± 0.16. For KYFGTAKARYDFCARDRSELSLKEGDIIKILNKKGQQGWWRGEIYGRVGWFPANYVEMDYS [E58M], the abundance fitness was -0.216 ± 0.094. KYFGTAKARYDFCARDRSELSLKEGDIIKILNKKGQQGWWRGEIYGRVGWFPANYVELDYS [E58L] gave an abundance fitness of -0.225 ± 0.077. Variant KYFGTAKARYDFCARDRSELSLKEGDIIKILNKKGQQGWWRGEIYGRVGWFPANYVEHDYS [E58H] has an abundance fitness of -0.533 ± 0.31. KYFGTAKARYDFCARDRSELSLKEGDIIKILNKKGQQGWWRGEIYGRVGWFPANYVEGDYS [E58G] gave an abundance fitness of -0.338 ± 0.082. KYFGTAKARYDFCARDRSELSLKEGDIIKILNKKGQQGWWRGEIYGRVGWFPANYVEWDYS [E58W] showed an abundance fitness of -0.364 ± 0.1. Variant KYFGTAKARYDFCARDRSELSLKEGDIIKILNKKGQQGWWRGEIYGRVGWFPANYVEYDYS [E58Y] has an abundance fitness of -0.065 ± 0.14. In the case of KYFGTAKARYDFCARDRSELSLKEGDIIKILNKKGQQGWWRGEIYGRVGWFPANYVERDYS [E58R], the abundance fitness is reported as -0.336 ± 0.076. KYFGTAKARYDFCARDRSELSLKEGDIIKILNKKGQQGWWRGEIYGRVGWFPANYVEADYS [E58A] gave an abundance fitness of -0.186 ± 0.077. KYFGTAKARYDFCARDRSELSLKEGDIIKILNKKGQQGWWRGEIYGRVGWFPANYVEPDYS [E58P] gave an abundance fitness of -0.169 ± 0.12. With KYFGTAKARYDFCARDRSELSLKEGDIIKILNKKGQQGWWRGEIYGRVGWFPANYVESDYS [E58S] the abundance fitness was -0.362 ± 0.095. Work on KYFGTAKARYDFCARDRSELSLKEGDIIKILNKKGQQGWWRGEIYGRVGWFPANYVEDDYS [E58D] yielded an abundance fitness of -0.435 ± 0.2. With KYFGTAKARYDFCARDRSELSLKEGDIIKILNKKGQQGWWRGEIYGRVGWFPANYVEVDYS [E58V] the abundance fitness was -0.117 ± 0.089. In the case of KYFGTAKARYDFCARDRSELSLKEGDIIKILNKKGQQGWWRGEIYGRVGWFPANYVEQDYS [E58Q], the abundance fitness is reported as -0.19 ± 0.17. KYFGTAKARYDFCARDRSELSLKEGDIIKILNKKGQQGWWRGEIYGRVGWFPANYVENDYS [E58N] showed an abundance fitness of -0.6 ± 0.38. With KYFGTAKARYDFCARDRSELSLKEGDIIKILNKKGQQGWWRGEIYGRVGWFPANYVETDYS [E58T] the abundance fitness was -0.129 ± 0.093. In the case of KYFGTAKARYDFCARDRSELSLKEGDIIKILNKKGQQGWWRGEIYGRVGWFPANYVEEDES [Y60E], the abundance fitness is reported as 0.005 ± 0.13. In the case of KYFGTAKARYDFCARDRSELSLKEGDIIKILNKKGQQGWWRGEIYGRVGWFPANYVEEDDS [Y60D], the abundance fitness is reported as 0.106 ± 0.18. KYFGTAKARYDFCARDRSELSLKEGDIIKILNKKGQQGWWRGEIYGRVGWFPANYVEEDFS [Y60F] showed an abundance fitness of 0.017 ± 0.15. In the case of KYFGTAKARYDFCARDRSELSLKEGDIIKILNKKGQQGWWRGEIYGRVGWFPANYVEEDAS [Y60A], the abundance fitness is reported as -0.079 ± 0.088. In the case of KYFGTAKARYDFCARDRSELSLKEGDIIKILNKKGQQGWWRGEIYGRVGWFPANYVEEDGS [Y60G], the abundance fitness is reported as -0.039 ± 0.085. Work on KYFGTAKARYDFCARDRSELSLKEGDIIKILNKKGQQGWWRGEIYGRVGWFPANYVEEDCS [Y60C] yielded an abundance fitness of -0.119 ± 0.14.
